Test results taken from patent publication US20150218261A1 (AbbVie / Abbott, published 2015).

Legend:
[1] = molecular target: T1, human platelet factor 4 (PF-4) in HPF4-spiked human plasma (human); test: aligned sandwich ELISA (E4), HPF4-spiked human plasma; AUC of reference anti-HPF4 antibody (ab49735) against AUC of this antibody
T1 construct: Human EDTA plasma pool (4 donors) spiked with 10 ng/ml human PF4 (Molecular Innovation cat. no. HPF4); also called human PF4; CXCL4

[2] = molecular target: T2, platelet factor 4 (PF-4) in Cynomolgus monkey plasma (Cynomolgus monkey (Macaca fascicularis), UniProt A0A7N9D5L6 32-101); test: sandwich-ELISA: antibody coated on the plate, dilution series of cynomolgus plasma, bound PF-4 detected (OD450nm)
T2 construct: Endogenous protein of the plasma; detected with rabbit polyclonal anti-HPF4 (Abcam ab9561); also called CXCL4
T2 sequence: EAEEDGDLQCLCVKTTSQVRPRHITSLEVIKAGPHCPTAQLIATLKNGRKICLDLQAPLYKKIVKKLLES

[3] = molecular target: T2, platelet factor 4 (PF-4) in Cynomolgus …; test: sandwich ELISA (E1), cynomolgus plasma; AUC of reference anti-HPF4 antibody (ab49735) against AUC of this antibody
[4] = molecular target: T2, platelet factor 4 (PF-4) in Cynomolgus …; test: aligned sandwich ELISA (E3), cynomolgus plasma; AUC of reference anti-HPF4 antibody (ab49735) against AUC of this antibody
Protocol: (§1) Then 10 μl 10 mg/ml trypsin inhibitor in H₂O were added. After incubation for 10 min at room temperature the sample was filtrated through a 0.22 μm filter (Millipore cat. no. SLGS0250S).
(§2) Procedure used: [0437] 1. 100 μl of the respective aligning antibody solution (anti-human IgG for experiment E3; anti-murine IgG for reference experiment R3) per well were applied and incubated overnight at 4° C. [0438] 2. The antibody solution was discarded and the wells were washed three times with 250 μl PB ST-buffer. [0439] 3. 265 μl blocking solution per well were added and incubated 2 h at room temperature. [0440] 4. The blocking solution was discarded and the wells were washed three times with 250 μl PBST buffer. [0441] 5. After preparation of the dilution series of each binding antibody, 100 μl per well of these antibody dilutions were applied to the plate. The plate was incubated 2 h at room temperature. [0442] 6. […] Plate colour was monitored during development (5-15 min at ambient temperature) and the reaction was terminated by adding 50 μl/well of stop solution when an appropriate colour had developed. […] The absorbance was read at 450 nm.
(§3) Data analysis was performed as described for sandwich-ELISA with cynomolgus plasma in Example 3.1, except that not plasma dilution factors but the amounts of antibody (expressed in ng/ml) were used as X-values and thus concentration effect curves were calculated.

[5] = molecular target: T1, human platelet factor 4 (PF-4) in …; test: sandwich ELISA (E2), HPF4-spiked human plasma; AUC of reference anti-HPF4 antibody (ab49735) against AUC of this antibody
[6] = molecular target: T3, Aβ(20-42) globulomer (human); test: SPR (BIAcore); antibody captured on goat anti-human IgG Fc, soluble globulomer injected; average
T3 construct: Range counted on the Aβ peptide; also called amyloid-beta (20-42) globulomer
T3 peptide: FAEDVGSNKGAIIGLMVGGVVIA
Protocol: (§4) Interaction of the purified humanized antibodies 4D10hum#1 and 4D10hum#2 to Aβ(20-42) globulomer was evaluated by surface plasmon resonance (SPR) analysis using a BIAcore device. Goat anti-human IgG Fc (10,000 RU) was directly immobilized on a CMS sensor chip by an amine coupling procedure according to the manufacturer's instructions (BIAcore). The respective 4D10hum antibody was captured on the goat anti-human IgG Fc coated surface of the chip by injecting 5.0 μl of a 1 μg/ml 4D10hum antibody solution at a flow rate of 10-15 μl/min. Interaction of soluble Aβ(20-42) globulomer with the 4D10hum antibody on the sensor chip was examined by injecting globulomer solutions (concentration range: 20-0.3125 nM) at a flow rate of 50 μl/min. The association rate was monitored for 5.0 min and the dissociation rate was monitored for 10 min. From the resulting sensorgrams the association rate constant (kₒₙ), dissociation rate constant (koff) and equilibrium dissociation constant (KD) were determined using to the manufacturer's software and instructions. The kinetic and equilibrium constants determined for three different preparations of 4D10hum#1 and two different preparations of 4D10hum#2 are summarized in table 7. […] The heavy chains of antibodies #4 and #5 are as in 4D10hum#1 or #2, and the light chains are chimeras of m4D10 VL (SEQ ID NO:24) and the human Ig kappa constant region (SEQ ID NO:27). The light chains of antibody #3 are as in 4D10hum#1 and #2, and the heavy chains are chimeras of m4D10 VH (SEQ ID NO23) and the human Ig gamma-1 constant region (SEQ ID NO:25).

[7] = molecular target: T3, Aβ(20-42) globulomer; test: SPR (BIAcore); antibody captured on goat anti-human IgG Fc, soluble globulomer injected; experiment 2
Protocol: as §4

[8] = molecular target: T3, Aβ(20-42) globulomer; test: SPR (BIAcore); antibody captured on goat anti-human IgG Fc, soluble globulomer injected; experiment 1
Protocol: as §4

[9] = molecular target: T3, Aβ(20-42) globulomer; test: SPR (BIAcore); antibody captured on goat anti-human IgG Fc, soluble globulomer injected; lot #1773659, experiment 2
Protocol: as §4

[10] = molecular target: T3, Aβ(20-42) globulomer; test: SPR (BIAcore); antibody captured on goat anti-human IgG Fc, soluble globulomer injected; lot #1759119, experiment 2
Protocol: as §4

[11] = molecular target: T3, Aβ(20-42) globulomer; test: SPR (BIAcore); antibody captured on goat anti-human IgG Fc, soluble globulomer injected; lot #1759119, average
Protocol: as §4

[12] = molecular target: T3, Aβ(20-42) globulomer; test: SPR (BIAcore); antibody captured on goat anti-human IgG Fc, soluble globulomer injected; lot #1759119, experiment 1
Protocol: as §4

[13] = molecular target: T2, platelet factor 4 (PF-4) in Cynomolgus …; test: aligned sandwich ELISA (E3), cynomolgus plasma; AUC was 0, ratio could not be calculated
Protocol: as §1, §2, §3

[14] = molecular target: T3, Aβ(20-42) globulomer; test: SPR (BIAcore); antibody captured on goat anti-human IgG Fc, soluble globulomer injected; lot #1773659, experiment 1
Protocol: as §4

[15] = molecular target: T3, Aβ(20-42) globulomer; test: SPR (BIAcore); antibody captured on goat anti-human IgG Fc, soluble globulomer injected; lot #1773659, average
Protocol: as §4

[16] = molecular target: T1, human platelet factor 4 (PF-4) in …; test: sandwich ELISA (R2), HPF4-spiked human plasma; AUC of reference anti-HPF4 antibody (ab49735) against AUC of this antibody
[17] = molecular target: T1, human platelet factor 4 (PF-4) in …; test: aligned sandwich ELISA (R4), HPF4-spiked human plasma; AUC of reference anti-HPF4 antibody (ab49735) against AUC of this antibody

B1: humanized monoclonal anti-Aβ antibody 4D10hum#1 (antibody, human IgG1, kappa, V domains shown)
VH: EVQLVESGGGLVQPGGSLRLSCAVSGFTLSSYGVHWVRQAPGKGLEWLGVIWRGGRIDYNAAFMSRLTISKDNSKSTVYLQMNSLRAEDTAVYYCARNSDVWGQGTTVTVSS
VL: DVVMTQTPLSLPVTPGQPASISCKSSQSLLDIDGKTYLNWLLQKPGQSPQRLIYLVSKLDSGVPDRFSGSGSGTDFTLKISRVEAEDVGVYYCWQGTHFPYTFGQGTKLEIKR
notes: also called mAb 4D10hum#1; mAb 4D10 hum#1
- Ratio HPF4/aAβ antibody [1]: 23
- binding result [2]: no binding (tested: plasma dilution 1:3.16)
- Ratio HPF4/aAβ antibody [3]: 64
- Ratio HPF4/aAβ antibody [4]: 158
- Ratio HPF4/aAβ antibody [5]: 30

B2: 4D10#4 (heavy chain as 4D10hum#1; chimeric light chain) (antibody, human IgG1, kappa, V domains shown)
VH: B1 VH
VL: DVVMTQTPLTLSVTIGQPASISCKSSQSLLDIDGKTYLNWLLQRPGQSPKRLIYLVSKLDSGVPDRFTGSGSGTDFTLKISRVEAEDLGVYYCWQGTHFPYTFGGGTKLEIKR
notes: Light chain is a chimera of m4D10 VL and the human Ig kappa constant region; also called antibody #4
- Kd [6]: 646 pM
- koff [6]: 0.000313 s⁻¹
- kon [6]: 484000 M⁻¹ s⁻¹
- Kd [7]: 657 pM
- koff [7]: 0.000332 s⁻¹
- kon [7]: 506000 M⁻¹ s⁻¹
- Kd [8]: 635 pM
- koff [8]: 0.000294 s⁻¹
- kon [8]: 462000 M⁻¹ s⁻¹

B3: humanized monoclonal anti-Aβ antibody 4D10hum#2 (antibody, human IgG1, kappa, V domains shown)
VH: EVQLQESGPGLVKPSETLSLTCTVSGFSLSSYGVHWVRQPPGKGLEWLGVIWRGGRIDYNAAFMSRLTISKDTSKSQVSLKLSSVTAADTAVYYCARNSDVWGQGTTVTVSS
VL: B1 VL
notes: also called mAb 4D10hum#2; mAb 4D10 hum#2
- Ratio HPF4/aAβ antibody [1]: 75
- binding result [2]: no binding (tested: plasma dilution 1:3.16)
- Kd [9]: 435 pM
- koff [9]: 0.000298 s⁻¹
- kon [9]: 686000 M⁻¹ s⁻¹
- Kd [10]: 609 pM
- koff [10]: 0.000332 s⁻¹
- kon [10]: 546000 M⁻¹ s⁻¹
- Kd [11]: 532 pM
- koff [11]: 0.000301 s⁻¹
- kon [11]: 570000 M⁻¹ s⁻¹
- Ratio HPF4/aAβ antibody [3]: 36
- Ratio HPF4/aAβ antibody [5]: 17
- Kd [12]: 454 pM
- koff [12]: 0.00027 s⁻¹
- kon [12]: 593000 M⁻¹ s⁻¹
- Ratio HPF4/aAβ antibody [13]: > 158
- Kd [14]: 529 pM
- koff [14]: 0.000268 s⁻¹
- kon [14]: 507000 M⁻¹ s⁻¹
- Kd [15]: 482 pM
- koff [15]: 0.000283 s⁻¹
- kon [15]: 597000 M⁻¹ s⁻¹

B4: 4D10#5 (heavy chain as 4D10hum#2; chimeric light chain) (antibody, human IgG1, kappa, V domains shown)
VH: B3 VH
VL: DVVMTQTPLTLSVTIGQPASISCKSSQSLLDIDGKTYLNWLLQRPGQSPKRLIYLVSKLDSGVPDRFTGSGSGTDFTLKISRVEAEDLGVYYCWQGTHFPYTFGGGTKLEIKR
notes: Light chain is a chimera of m4D10 VL and the human Ig kappa constant region; also called antibody #5
- Kd [6]: 575 pM
- koff [6]: 0.000277 s⁻¹
- kon [6]: 483000 M⁻¹ s⁻¹
- Kd [7]: 619 pM
- koff [7]: 0.000292 s⁻¹
- kon [7]: 472000 M⁻¹ s⁻¹
- Kd [8]: 530 pM
- koff [8]: 0.000262 s⁻¹
- kon [8]: 494000 M⁻¹ s⁻¹

B5: anti-Aβ monoclonal antibody clone m4D10 (antibody, V domains shown)
VH: QVQLKQSGPSLIQPSQSLSITCTVSGFSLTSYGVHWVRQSPGKGLEWLGVIWRGGRIDYNAAFMSRLSITKDNSKSQVFFKMNSLQADDTAIYYCARNSDVWGTGTTVTVSS
VL: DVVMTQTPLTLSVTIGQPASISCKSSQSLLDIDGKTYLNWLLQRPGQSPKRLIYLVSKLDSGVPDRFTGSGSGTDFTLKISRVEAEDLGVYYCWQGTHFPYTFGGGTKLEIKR
notes: Murine monoclonal antibody; also called mAb m4D10; murine 4D10
- Ratio HPF4/aAβ antibody [16]: 21
- Ratio HPF4/aAβ antibody [17]: 27

B6: 4D10#3 (chimeric heavy chain; light chain as 4D10hum#1 and #2) (antibody, human IgG1, kappa, V domains shown)
VH: B5 VH
VL: B1 VL
notes: Heavy chain is a chimera of m4D10 VH and the human Ig gamma-1 constant region; light chain is the humanized one; also called antibody #3
- Kd [6]: 597 pM
- koff [6]: 0.000333 s⁻¹
- kon [6]: 563000 M⁻¹ s⁻¹
- Kd [7]: 669 pM
- koff [7]: 0.000349 s⁻¹
- kon [7]: 522000 M⁻¹ s⁻¹
- Kd [8]: 525 pM
- koff [8]: 0.000317 s⁻¹
- kon [8]: 603000 M⁻¹ s⁻¹
